In article PMC8584306, “Characterization of Novel Pathogenic Variants Causing Pyridox(am)ine 5′-Phosphate Oxidase-Dependent Epilepsy” (International Journal of Molecular Sciences, 2021):

T1: pyridox(am)ine 5′-phosphate oxidase (PNPO) (Homo sapiens, UniProt Q9NVS9)
T1 construct: homodimer with FMN
T1 sequence (Q9NVS9 1-261): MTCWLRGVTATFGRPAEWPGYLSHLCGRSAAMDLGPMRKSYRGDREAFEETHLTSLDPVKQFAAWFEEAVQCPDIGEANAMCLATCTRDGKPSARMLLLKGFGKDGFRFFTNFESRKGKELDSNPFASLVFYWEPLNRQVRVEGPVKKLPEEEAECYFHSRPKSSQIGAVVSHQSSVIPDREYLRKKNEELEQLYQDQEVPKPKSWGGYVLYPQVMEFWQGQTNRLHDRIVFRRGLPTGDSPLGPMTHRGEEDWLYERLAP


Target: T1, pyridox(am)ine 5′-phosphate oxidase (PNPO)
Assay: differential scanning fluorimetry
Assay type: binding
Details: equimolar FMN added to 2 µM purified enzyme (already FMN-bound); range given for all PNPO forms
Source text: differential scanning fluorimetry on pyridox(am)ine 5′-phosphate oxidase (PNPO) | equimolar amount of FMN stabilizes all the PNPO forms by increasing the Tm

Molecule | increase in Tm
Cc1cc2nc3c(=O)[nH]c(=O)nc-3n(C[C@H](O)[C@H](O)[C@H](O)COP(=O)(O)O)c2cc1C [FMN] | 2–3 °C

Target: the molecule itself
Assay: SEC; gel filtration on a Superdex 200 10/300 GL column, as described previously [20]; elution profiles compared with the wild type
Details: not given

Molecule | stoichiometry N
pyridox(am)ine 5′-phosphate oxidase, wild type (enzyme, human, human pyridox(am)ine 5′-phosphate oxidase (PNPO), recombinant; The vector pET28-PNPO is named only for the variants; also called PNPO; WT; source: recombinant, purified by the protocol of [4]) MTCWLRGVTATFGRPAEWPGYLSHLCGRSAAMDLGPMRKSYRGDREAFEETHLTSLDPVKQFAAWFEEAVQCPDIGEANAMCLATCTRDGKPSARMLLLKGFGKDGFRFFTNFESRKGKELDSNPFASLVFYWEPLNRQVRVEGPVKKLPEEEAECYFHSRPKSSQIGAVVSHQSSVIPDREYLRKKNEELEQLYQDQEVPKPKSWGGYVLYPQVMEFWQGQTNRLHDRIVFRRGLPTGDSPLGPMTHRGEEDWLYERLAP | 2
pyridox(am)ine 5′-phosphate oxidase D33V variant (enzyme, human, human PNPO, patient variant D33V made by site-directed mutagenesis in pET28-PNPO; also called PNPO D33V; source: E. coli Rosetta (DE3), purified as described in [4]) MTCWLRGVTATFGRPAEWPGYLSHLCGRSAAMVLGPMRKSYRGDREAFEETHLTSLDPVKQFAAWFEEAVQCPDIGEANAMCLATCTRDGKPSARMLLLKGFGKDGFRFFTNFESRKGKELDSNPFASLVFYWEPLNRQVRVEGPVKKLPEEEAECYFHSRPKSSQIGAVVSHQSSVIPDREYLRKKNEELEQLYQDQEVPKPKSWGGYVLYPQVMEFWQGQTNRLHDRIVFRRGLPTGDSPLGPMTHRGEEDWLYERLAP | 2
pyridox(am)ine 5′-phosphate oxidase P213S variant (enzyme, human, human PNPO, patient variant P213S made by site-directed mutagenesis in pET28-PNPO; also called PNPO P213S; source: E. coli Rosetta (DE3), purified as described in [4]) MTCWLRGVTATFGRPAEWPGYLSHLCGRSAAMDLGPMRKSYRGDREAFEETHLTSLDPVKQFAAWFEEAVQCPDIGEANAMCLATCTRDGKPSARMLLLKGFGKDGFRFFTNFESRKGKELDSNPFASLVFYWEPLNRQVRVEGPVKKLPEEEAECYFHSRPKSSQIGAVVSHQSSVIPDREYLRKKNEELEQLYQDQEVPKPKSWGGYVLYSQVMEFWQGQTNRLHDRIVFRRGLPTGDSPLGPMTHRGEEDWLYERLAP | 2
pyridox(am)ine 5′-phosphate oxidase E50K variant (enzyme, human, human PNPO, natural variant E50K made by site-directed mutagenesis in pET28-PNPO; also called PNPO E50K; source: E. coli Rosetta (DE3), purified as described in [4]) MTCWLRGVTATFGRPAEWPGYLSHLCGRSAAMDLGPMRKSYRGDREAFEKTHLTSLDPVKQFAAWFEEAVQCPDIGEANAMCLATCTRDGKPSARMLLLKGFGKDGFRFFTNFESRKGKELDSNPFASLVFYWEPLNRQVRVEGPVKKLPEEEAECYFHSRPKSSQIGAVVSHQSSVIPDREYLRKKNEELEQLYQDQEVPKPKSWGGYVLYPQVMEFWQGQTNRLHDRIVFRRGLPTGDSPLGPMTHRGEEDWLYERLAP | 2
pyridox(am)ine 5′-phosphate oxidase R161C variant (enzyme, human, human PNPO, patient variant R161C made by site-directed mutagenesis in pET28-PNPO; also called PNPO R161C; source: E. coli Rosetta (DE3), purified as described in [4]) MTCWLRGVTATFGRPAEWPGYLSHLCGRSAAMDLGPMRKSYRGDREAFEETHLTSLDPVKQFAAWFEEAVQCPDIGEANAMCLATCTRDGKPSARMLLLKGFGKDGFRFFTNFESRKGKELDSNPFASLVFYWEPLNRQVRVEGPVKKLPEEEAECYFHSCPKSSQIGAVVSHQSSVIPDREYLRKKNEELEQLYQDQEVPKPKSWGGYVLYPQVMEFWQGQTNRLHDRIVFRRGLPTGDSPLGPMTHRGEEDWLYERLAP | 2
